# Target: GLP-1R (Homo sapiens, UniProt P43220)
# Test: cAMP response element luciferase reporter gene assay in GLP-1R+ CHO-K1 cells
# Format: cell-based
# Settings: 1 μM of the ligand, Figure 3A
# GLP-1R, sequence (P43220 24-463): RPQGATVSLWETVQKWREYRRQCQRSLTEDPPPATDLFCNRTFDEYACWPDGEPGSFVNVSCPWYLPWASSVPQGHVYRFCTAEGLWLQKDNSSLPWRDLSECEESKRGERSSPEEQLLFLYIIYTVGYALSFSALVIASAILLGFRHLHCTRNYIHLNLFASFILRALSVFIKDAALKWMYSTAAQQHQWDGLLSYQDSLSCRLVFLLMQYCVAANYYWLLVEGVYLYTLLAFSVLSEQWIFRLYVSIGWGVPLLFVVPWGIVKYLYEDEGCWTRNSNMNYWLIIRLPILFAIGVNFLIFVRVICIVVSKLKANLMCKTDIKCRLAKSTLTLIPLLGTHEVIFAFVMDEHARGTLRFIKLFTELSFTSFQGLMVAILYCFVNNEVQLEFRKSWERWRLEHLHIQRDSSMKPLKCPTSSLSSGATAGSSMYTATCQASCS
substance,measurement,value
exendin-4_9-39: exendin-4 fragment 9-39 used at 1 μM to inhibit GLP-1R activation,inhibition of GLP-1 agonism at GLP-1R,inhibited
